# Laboratory results reported in IntAct's records for PubMed 18976727.
# B1: Prickle-like protein 1 (Homo sapiens), Q96MT3 (parent)
# chain: MPLEMEPKMSKLAFGCQRSSTSDDDSGCALEEYAWVPPGLRPEQIQLYFACLPEEKVPYVNSPGEKHRIKQLLYQLPPHDNEVRYCQSLSEEEKKELQVFSAQRKKEALGRGTIKLLSRAVMHAVCEQCGLKINGGEVAVFASRAGPGVCWHPSCFVCFTCNELLVDLIYFYQDGKIHCGRHHAELLKPRCSACDEIIFADECTEAEGRHWHMKHFCCLECETVLGGQRYIMKDGRPFCCGCFESLYAEYCETCGEHIGVDHAQMTYDGQHWHATEACFSCAQCKASLLGCPFLPKQGQIYCSKTCSLGEDVHASDSSDSAFQSARSRDSRRSVRMGKSSRSADQCRQSLLLSPALNYKFPGLSGNADDTLSRKLDDLSLSRQGTSFASEEFWKGRVEQETPEDPEEWADHEDYMTQLLLKFGDKSLFQPQPNEMDIRASEHWISDNMVKSKTELKQNNQSLASKKYQSDMYWAQSQDGLGDSAYGSHPGPASSRRLQELELDHGASGYNHDETQWYEDSLECLSDLKPEQSVRDSMDSLALSNITGASVDGENKPRPSLYSLQNFEEMETEDCEKMSNMGTLNSSMLHRSAESLKSLSSELCPEKILPEEKPVHLPVLRRSKSQSRPQQVKFSDDVIDNGNYDIEIRQPPMSERTRRRVYNFEERGSRSHHHRRRRSRKSRSDNALNLVTERKYSPKDRLRLYTPDNYEKFIQNKSAREIQAYIQNADLYGQYAHATSDYGLQNPGMNRFLGLYGEDDDSWCSSSSSSSDSEEEGYFLGQPIPQPRPQRFAYYTDDLSSPPSALPTPQFGQRTTKSKKKKGHKGKNCIIS
# partner: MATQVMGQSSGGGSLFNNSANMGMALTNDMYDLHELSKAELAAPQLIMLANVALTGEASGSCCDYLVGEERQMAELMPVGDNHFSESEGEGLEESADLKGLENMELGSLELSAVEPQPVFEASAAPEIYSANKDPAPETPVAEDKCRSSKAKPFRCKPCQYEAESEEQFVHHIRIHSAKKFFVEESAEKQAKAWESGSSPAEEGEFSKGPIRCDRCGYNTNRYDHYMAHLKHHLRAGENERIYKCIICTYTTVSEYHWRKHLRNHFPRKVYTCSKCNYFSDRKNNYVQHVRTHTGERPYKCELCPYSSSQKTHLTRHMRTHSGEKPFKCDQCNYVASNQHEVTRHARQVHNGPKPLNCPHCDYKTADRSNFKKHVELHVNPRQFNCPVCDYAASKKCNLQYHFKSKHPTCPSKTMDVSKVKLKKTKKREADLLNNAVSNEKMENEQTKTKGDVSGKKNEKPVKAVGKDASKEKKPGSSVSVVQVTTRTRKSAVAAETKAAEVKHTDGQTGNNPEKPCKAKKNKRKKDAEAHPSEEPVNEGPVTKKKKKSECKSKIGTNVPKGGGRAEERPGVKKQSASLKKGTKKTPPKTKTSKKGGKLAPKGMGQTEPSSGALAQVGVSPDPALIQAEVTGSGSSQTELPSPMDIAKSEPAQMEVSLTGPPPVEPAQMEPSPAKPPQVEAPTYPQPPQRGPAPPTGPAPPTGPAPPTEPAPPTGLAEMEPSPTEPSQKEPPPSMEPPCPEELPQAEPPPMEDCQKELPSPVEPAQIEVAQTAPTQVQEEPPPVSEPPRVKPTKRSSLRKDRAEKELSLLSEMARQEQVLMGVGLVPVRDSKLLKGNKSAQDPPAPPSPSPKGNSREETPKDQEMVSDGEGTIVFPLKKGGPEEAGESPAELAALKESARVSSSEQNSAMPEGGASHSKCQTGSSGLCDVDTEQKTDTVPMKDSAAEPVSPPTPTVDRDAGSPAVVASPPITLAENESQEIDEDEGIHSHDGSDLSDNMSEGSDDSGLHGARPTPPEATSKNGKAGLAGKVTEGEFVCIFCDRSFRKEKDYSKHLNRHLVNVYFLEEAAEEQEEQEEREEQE
# Variants of: B1
# Conditions: with rest_mouse Rest
row,effect of a mutation on the interaction,Variant
1,decreasing interaction,R104Q
